Reference: article PMC5753033, “WH2 and proline‐rich domains of WASP‐family proteins collaborate to accelerate actin filament elongation” (The EMBO Journal, 2017)

Target: Atto540Q-labeled actin monomers (Acanthamoeba castellanii), Latrunculin B-stabilized (Acanthamoeba castellanii, Atto540Q-NHS at reactive lysine residues)
Experiment: FRET or BRET; 7.5 nM Alexa488-labeled WAVE1 variant titrated with LatB-stabilized Atto540Q-actin; donor quenching; room temperature; 20 mM HEPES pH 7.0, 100 mM KCl, 1.5 mM MgCl2, 1 mM EGTA, 1 mM ATP; single site binding curve
Conditions: both partners purified

B1: Alexa488-labeled WAVE1 P_CA (WH2-delete construct) (domain or fragment)
chain: RPHEPPPPPPMHGAGDAKPIPTSISSATGLIENRPQSPATGRTPVFVSPTPPPPPPPLPSALSTSSLRASMTSTPPPPVPPPPPPPATALQAPAVPPPPAPLQIAPGVLHPAPPPIAPPLVQPSPPVARAAPVSETVPVHPLPQGEVQGLPPPPPPPPLPPPGIRPSSPVTVTALAHPPSGLHPTPSTAPGPHVPLMPPSPPSQVIPASEPKRHPSCLPVISDEEQREQEAKHERIENDVATILSRRIAVEYSDSEDDSEFDEVDWLE
modifications: Alexa488-maleimide on Cys490
Question: B1 was tested. Which Kd did it give?
Answer: Its Kd is 425 nM.
